For one substance, Kd results are on record in article PMC11432317.

The target of this assay is receptor binding domain (RBD) of the SARS-CoV-2 spike protein (residues 319-541) (SARS-CoV-2) (UniProt P0DTC2). In words: SPR. (Surface plasmon resonance follows binding to a sensor surface in real time, without labels.)

By Kd is commonly meant the concentration at which binding is half-saturated. A lower Kd goes with tighter binding. With “wild-type sACE2-Fc (soluble ACE2, residues 1-615, fused to human IgG Fc) (from UniProt Q9BYF1 18-615) (Fc fusion)”, the Kd came to 23.2 nM.
